In patent publication US20110251140A1 (CENTRO DE INGENIERIA GENETICA Y BIOTECNOLOGIA, published 2011):
No end group written: not given here.

T1: IL-15Rα on CTLL-2 cells (murine (CTLL-2 murine cell line), UniProt Q60819 33-263)
T1 sequence (looked up): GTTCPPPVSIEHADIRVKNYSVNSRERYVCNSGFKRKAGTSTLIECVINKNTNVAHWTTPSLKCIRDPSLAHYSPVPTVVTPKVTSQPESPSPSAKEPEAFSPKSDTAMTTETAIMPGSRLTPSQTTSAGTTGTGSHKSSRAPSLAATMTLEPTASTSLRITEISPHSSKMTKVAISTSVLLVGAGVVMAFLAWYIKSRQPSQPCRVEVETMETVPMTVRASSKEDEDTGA


Tests used:
IL-15Rα on CTLL-2 cells [1] = molecular target: T1, IL-15Rα on CTLL-2 cells; test: cell-based or functional assay
IL-15Rα on CTLL-2 cells [2] = molecular target: T1, IL-15Rα on CTLL-2 cells; test: cell-based or functional assay; remark: listed apart in the source

Row | IC50 (µM), IL-15-induced (300 pg/mL) proliferation of the CTLL-2 cell line, MTT (IL-15Rα on CTLL-2 cells [1]) [µM] | IC50 (µM), IL-15-induced proliferation of the CTLL-2 cell line, MTT; '0' stands for loss of the inhibitory effect (IL-15Rα on CTLL-2 cells [1]) [µM] | Binder | further results
1 | 130 | – | KVAAMKCFLL-NH2 | –
2 | 260 | – | KVTAMKCFLA-NH2 | –
3 | – | 0 | KVTAMECFLL-NH2 | –
4 | – | 0 | KVTAMKAFLL-NH2 [Cys-Ala mutant (SEQ ID No. 5)] | –
5 | 130 | – | KATAMKCFLL-NH2 | –
6 | – | – | KVTAMTCFLL-NH2 (also: homodimer, two monomers linked through the free Cys) [peptide dimer of SEQ ID No. 12 linked through the free Cys] | fold inhibitory activity against the original peptide, CTLL-2 proliferation assay (IL-15Rα on CTLL-2 cells [2]): 15 fold; inhibitory concentration 50 (IC50), IL-15-dependent proliferation (IL-15Rα on CTLL-2 cells [2]): 8 µM
7 | – | 0 | KVTAMKSFLL-NH2 | –
8 | 130 | – | KVTAAKCFLL-NH2 | –
9 | 130 | – | KVTAMKCFLL-NH2 [KVTAMKCFLL (IL-15 antagonistic peptide of patent application No. WO2006/029578)] | –
10 | 200 | – | KVTAMKCFAL-NH2 | –
11 | – | 0 | KVTAMKCALL-NH2 [mutant Phe-Ala (SEQ ID No. 4)] | –
12 | 57.7 | – | KVTAMTCYLL-NH2 | –
13 | 24.6 | – | KVTAMTCFLL-NH2 [peptide SEQ ID No. 12 (Lys-Thr mutant, monomer)] | fold inhibitory activity against the original peptide, CTLL-2 proliferation assay (IL-15Rα on CTLL-2 cells [2]): 5 fold
